This note sets out measurements from paper doi:10.1101/2025.08.21.671446 (bioRxiv, 2025).

Usually stoichiometry N stands for the number of molecules, sites or subunits per partner or assembly. As usually defined, the Kd is the equilibrium constant for the complex coming apart. A lower Kd goes with tighter binding.

Where “and” joins values, the source holds several entries; their conditions need not be identical. Equal values may be shown once. Read-outs that look alike come from different tables or passages of the source.

Series [1] deals with the molecule itself. Kind of series: SEC. A general note: SEC sorts molecules by how far they enter the pores of the column.
Series [2] deals with the molecule itself. Kind of series: SEC. This is another data set of the same source.
Series [3] concerns the target T1, MoyR (Mycobacterium tuberculosis H37Rv, UniProt O86331 1-269).
T1 sequence: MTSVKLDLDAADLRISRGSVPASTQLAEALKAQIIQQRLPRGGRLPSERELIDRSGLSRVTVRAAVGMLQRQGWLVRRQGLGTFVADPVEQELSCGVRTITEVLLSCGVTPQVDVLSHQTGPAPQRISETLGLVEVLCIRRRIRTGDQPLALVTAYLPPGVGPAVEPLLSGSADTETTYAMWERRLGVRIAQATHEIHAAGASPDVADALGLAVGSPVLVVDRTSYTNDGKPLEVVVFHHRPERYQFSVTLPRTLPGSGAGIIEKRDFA
Kind of series: EMSA. In general terms: A gel shift assay detects complexes by their altered migration in electrophoresis.

For series [4], the target named is T1, MoyR. Kind of series: EMSA. This is another data set of the same source.
The target in series [5] is T1, MoyR. Kind of series: EMSA. The source holds these as a separate data set.

B1: MoyR (Rv0792c), GntR family (HutC subfamily) monooxygenase regulator of Mycobacterium tuberculosis (natural protein)
chain: MTSVKLDLDAADLRISRGSVPASTQLAEALKAQIIQQRLPRGGRLPSERELIDRSGLSRVTVRAAVGMLQRQGWLVRRQGLGTFVADPVEQELSCGVRTITEVLLSCGVTPQVDVLSHQTGPAPQRISETLGLVEVLCIRRRIRTGDQPLALVTAYLPPGVGPAVEPLLSGSADTETTYAMWERRLGVRIAQATHEIHAAGASPDVADALGLAVGSPVLVVDRTSYTNDGKPLEVVVFHHRPERYQFSVTLPRTLPGSGAGIIEKRDFA
For B1, the “stoichiometry N” value was 2 in the series “SEC [1]”; 4 and 6 in the series “SEC [2]”.

B2: moyOf4 (dsDNA)
DNA 1: TAGCAGCGGAAGAAGGTCA
DNA 2: TGACCTTCTTCCGCTGCTA
Turning to B2, in the series with MoyR [3], the binding result is “no binding”.

B3: moyOf1 (47 bp) (dsDNA)
DNA 1: AGCTTGACAGATGTCATAAGACGTATTAAAACGTCTTATACTCACCA
DNA 2: TGGTGAGTATAAGACGTTTTAATACGTCTTATGACATCTGTCAAGCT
In the series with MoyR [4], B3 showed a Kd of 16.6 nM.

B4: moyOf6 (20 bp) (dsDNA)
DNA 1: AGCTTGACAGATGTCATAAG
DNA 2: CTTATGACATCTGTCAAGCT
Regarding B4, the binding result in the series with MoyR [5] was “no binding”.
